Tests used:
[1] = test system: fibrin; test: Simulated fibrinolysis in healthy patient blood, T2Coagulation T2B versus TEG LY30; type: cell-based, human; details: kaolin runs
Description: Five different healthy patient samples were used to test whether T2Coagulation was sensitive to fibrinolysis. Addition of tissue plasminogen activator (TPA) was used to simulate fibrinolysis by adding it at two levels to healthy patient blood. TPA cleaves fibrin as it forms. It was observed that fibrinolysis can be detected within 10 minutes on T2Coagulation, which is less than half the time required for detection on TEG. For all five patients there was a clear difference between healthy and fibrinolytic samples.
There are several potential features that can be used for this correlation. Three that were investigated were the difference between (i) the minimum and maximum T2B values (FIG. 13), (ii) the average of the T2B values over the final 25 minutes of the T2B curves, and (iii) the T2B values at 10 minutes. All had correlations with R^2 values between 0.72 and 0.79. The correlation plots show a higher sensitivity of T2Coagulation for fibrinolysis than TEG. This can be seen by the groupings for the different levels of fibrinolysis in FIG. 13. The healthy patient samples are circled with the solid line. […] The T2Coagulation T2B term can be detected in as little as 10 minutes, which is much faster than the TEG LY30 term can be detected, indicating the utility of the T2Coagulation signal for more rapid measurement of fibrinolysis.

[2] = test system: whole blood fibrinolysis; test: T2MR whole blood fibrinolysis with spiked TPA; type: cell-based, human; details: TPA 100 U/mL, blood from a healthy donor
Description: The T2MR surface is also sensitive to whole blood fibrinolysis. To assess this, healthy donor samples were spiked with tissue plasminogen activator (TPA).
TPA was added at 100 U/mL to blood from a healthy donor. In the absence of TPA (see FIG. 27a) two stable peaks form at the expected clotting time. With 100 U/mL of TPA (see FIG. 27b) the clot forms at the expected time, but proves to be unstable after 20-30 minutes. Both the instability and the distance between the final T2 peaks indicate sensitivity to fibrinolysis induced by the presence of TPA.
The T2MR effect on fibrinolysis was expressed in AU values (arbitrary units; see FIG. 27c) obtained by calculating the difference between the maximum and minimum T2 value observed for the clot signal (or T2B) in the T2 time curve.
Fibrinolysis was monitored by T2 magnetic resonance (T2MR) in five patient blood samples with and without the addition of TPA (100 U/mL) (FIG. 27c). […] All other samples required addition of TPA to induce fibrinolysis, as confirmed by the reference method.

[3] = test system: human platelets; test: T2 relaxation 3D plots of clotting whole blood containing abciximab; type: cell-based
Description: T2 relaxation rate data was collected from CK blood samples drawn from healthy patients. For each sample, a series of T2 decay curves were measured over a period of 50 minutes. The decay curves were each processed using an inverse Laplace transform (ILT CONTIN) to provide an array of curves showing T2 intensity as a function of T2 time. […] FIG. 20 illustrates the 3D data sets for patient samples 29328 and 29350 collected on a Bruker minispec. […] At a time between 5 minutes and 30 minutes, the single water population diverged into two significant water populations. These two water populations correspond to the two components of the clot, i.e., the retracted clot and the serum surrounding the retracted clot. […] For some samples these two peaks were not entirely resolved. […]
In a first experiment, four aliquots of patient sample 29488 were prepared with different concentrations of abciximab (0, 2, 4, and 8 μg/mL) prior to initiation of the clotting process. The T2 relaxation times for the four samples were measuring over the course of clot formation and the corresponding 3D plots were determined using the technique described in Example 13. […] This physical change is evidenced and quantified in the corresponding 3D plots (FIG. 21), showing fast exchange of water within the uniform sample at the highest concentration of abciximab.

[4] = test system: whole blood sample; test: TEG clot strength (MA) of whole blood samples containing abciximab; type: cell-based, human; details: patient sample 29494
Description: The TEG Hemostasis Analyzer provides quantitative and qualitative measurements of the physical properties of a clot (Samara et al., Thromb. Res. 115:89-94, 2005). In the present example, the maximum amplitude (MA) and the coagulation time (R) were measured for the thrombin generated clot sample. MA is an indicator of the viscoelasticity of clot formation or clot strength and is dependent on platelet aggregation and fibrin formation and polymerization. R is the period of time of latency until initial fibrin formation and has been correlated with the velocity of thrombin generation.
The clotting of a whole blood sample was perturbed using the antithrombotic agent abciximab (ReoPro®). Abciximab is the Fab fragment of a human-murine monoclonal antibody that binds to the Ith/IIIa receptor of human platelets and inhibits platelet aggregation. Abciximab serves to inhibit the retraction of a clot during the clotting process.
Samples containing abciximab were prepared according to the following procedure and referenced in the application and Figures by a number corresponding to the concentration of abciximab in units of μg/mL.
1. Blood was drawn from normal donors into six citrate tubes. Normal donors must not have taken aspirin or any anti-platelet drug in the past two weeks.
2. The six tubes of blood were pooled and mixed gently by inversion eight to ten times. Samples were used within two hours of collection.
3. A abciximab solution (10 mg/5 mL) was diluted at a ratio of 1:4 using saline as a diluent to form “solution 1.”
4. The blood was spiked with solution 1 and saline according to Table 5
5. […]
In a second experiment, five aliquots of patient sample 29494 were prepared with different concentrations (0, 2, 4, 8, and 0 μg/mL) of abciximab prior to initiation of the clotting process. The T2 relaxations times for the samples were measured in series, with each set of measurements lasting approximately 50 min. […] The corresponding TEG-determined MA values for these samples was 60.7, 61.4, 30.4, and 22.0, respectively.

B1: Cathflo®: recombinant alteplase manufactured by Genentech (protein, UniProt P00750 36-562, looked up)
Tissue-type plasminogen …: SYQVICRDEKTQMIYQQHQSWLRPVLRSNRVEYCWCNSGRAQCHSVPVKSCSEPRCFNGGTCQQALYFSDFVCQCPEGFAGKCCEIDTRATCYEDQGISYRGTWSTAESGAECTNWNSSALAQKPYSGRRPDAIRLGLGNHNYCRNPDRDSKPWCYVFKAGKYSSEFCSTPACSEGNSDCYFGNGSAYRGTHSLTESGASCLPWNSMILIGKVYTAQNPSAQALGLGKHNYCRNPDGDAKPWCHVLKNRRLTWEYCDVPSCSTCGLRQYSQPQFRIKGGLFADIASHPWQAAIFAKHRRSPGERFLCGGILISSCWILSAAHCFQERFPPHHLTVILGRTYRVVPGEEEQKFEVEKYIVHKEFDDDTYDNDIALLQLKSDSSRCAQESSVVRTVCLPPADLQLPDWTECELSGYGKHEALSPFYSERLKEAHVRLYPSSRCTSQHLLNRTVTDNMLCAGDTRSGGPQANLHDACQGDSGGPLVCLNDGRMTLVGIISWGLGCGQKDVPGVYTKVTNYLDWIRDNMRP
modifications: alteplase
notes: recombinant alteplase manufactured by Genentech
B1 was tested, and the “degree of fibrinolysis of samples” value ([1]; 60 ng/mL Cathflo in healthy patient blood) was “partially fibrinolytic” and the “degree of fibrinolysis of samples” value ([1]; 118 ng/mL Cathflo in healthy patient blood) was “fully fibrinolytic”.

B2: tissue plasminogen activator (protein, UniProt P00750 36-562, looked up)
Tissue-type plasminogen …: SYQVICRDEKTQMIYQQHQSWLRPVLRSNRVEYCWCNSGRAQCHSVPVKSCSEPRCFNGGTCQQALYFSDFVCQCPEGFAGKCCEIDTRATCYEDQGISYRGTWSTAESGAECTNWNSSALAQKPYSGRRPDAIRLGLGNHNYCRNPDRDSKPWCYVFKAGKYSSEFCSTPACSEGNSDCYFGNGSAYRGTHSLTESGASCLPWNSMILIGKVYTAQNPSAQALGLGKHNYCRNPDGDAKPWCHVLKNRRLTWEYCDVPSCSTCGLRQYSQPQFRIKGGLFADIASHPWQAAIFAKHRRSPGERFLCGGILISSCWILSAAHCFQERFPPHHLTVILGRTYRVVPGEEEQKFEVEKYIVHKEFDDDTYDNDIALLQLKSDSSRCAQESSVVRTVCLPPADLQLPDWTECELSGYGKHEALSPFYSERLKEAHVRLYPSSRCTSQHLLNRTVTDNMLCAGDTRSGGPQANLHDACQGDSGGPLVCLNDGRMTLVGIISWGLGCGQKDVPGVYTKVTNYLDWIRDNMRP
notes: cleaves fibrin as it forms
With B2 the “time after which the clot proves to be unstable” value [2] was 20 to 30 min.

B3: abciximab (antibody, chains of the INN, looked up, V domains shown)
VH: EVQLQQSGTVLARPGASVKMSCEASGYTFTNYWMHWVKQRPGQGLEWIGAIYPGNSDTSYIQKFKGKAKLTAVTSTTSVYMELSSLTNEDSAVYYCTLYDGYYVFAYWGQGTLVTVSA
VL: EIVLTQSPVTLSVTPGDSVSLSCRASRDISNNLHWFQQTSHESPRLLIKYASQSMSGIPSRFSGSGSGTDFTLSINSVETEDFGMYFCQQTNSWPYTFGGGTKLEIK
modifications: Fab
B3 was tested, and the “effect on clot associated T2 signal intensity” value ([3]; 8 μg/mL Reopro, T2reader, versus native sample) was “reduces the signal intensity of the clot associated signal”, the “phases (retracted clot and serum water populations) visible within the clot” value ([3]; highest concentration of abciximab (8 μg/mL), patient sample 29488, Bruker minispec) was “no longer two phases visible within the clot” and the “TEG-determined MA value” ([4]; abciximab 2 μg/mL) was 61.4. For the same molecule, the “TEG-determined MA value” ([4]; abciximab 4 μg/mL) was 30.4 and the “TEG-determined MA value” ([4]; abciximab 8 μg/mL) was 22.0.

— patent US9599627B2, “NMR methods for monitoring blood clot formation” (T2 Biosystems, Inc., priority 2011, dated 2017)
